Measured values: the supplement of paper PMC9112550, “Optimization of the antimicrobial peptide Bac7 by deep mutational scanning” (BMC Biology, 2022)

Each sequence was assayed on Escherichia coli TOP10 (assay: shrunken log2 fold change of peptide-encoding DNA abundance (4.5 h post-induction vs induction); higher = less antimicrobial activity (less host growth inhibition)). Conditions: time post-induction: 4.5 h; library: site-saturation at positions 5, 18, 19, 20.
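Also: peptides expressed intracellularly from a pBAD plasmid library in pooled LB shake-flask culture, induced with 0.3% L-arabinose, DNA abundance read by NGS, three biological replicates, DESeq2 with apeglm shrinkage.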

Row | Sequence | shrunken log2 fold change
1 | RRIRSRPPRLPRPRPRPVVIPRP | -0.429
2 | RRIRIRPPRLPRPRPRPTEQPRP | -0.348
3 | RRIRWRPPRLPRPRPRPEIEPRP | 0.193
4 | RRIRQRPPRLPRPRPRPMEDPRP | -0.00192
5 | RRIRSRPPRLPRPRPRPGYAPRP | 0.111
6 | RRIRCRPPRLPRPRPRPFAWPRP | 0.0983
7 | RRIRKRPPRLPRPRPRPQHSPRP | -0.288
8 | RRIRMRPPRLPRPRPRPAKGPRP | 0.271
9 | RRIRYRPPRLPRPRPRPKQDPRP | -0.488
10 | RRIRPRPPRLPRPRPRPSANPRP | -0.00762
11 | RRIRSRPPRLPRPRPRPMHGPRP | 0.102
12 | RRIRERPPRLPRPRPRPCQFPRP | -0.131
13 | RRIRMRPPRLPRPRPRPAKDPRP | 0.042
14 | RRIRKRPPRLPRPRPRPLHIPRP | -0.172
15 | RRIRPRPPRLPRPRPRPWWKPRP | -0.0424
16 | RRIRRRPPRLPRPRPRPARKPRP | 0.58
17 | RRIRNRPPRLPRPRPRPAVLPRP | 0.00424
18 | RRIRRRPPRLPRPRPRPVRYPRP | 0.181
19 | RRIRERPPRLPRPRPRPDAGPRP | -0.0396
20 | RRIRMRPPRLPRPRPRPWNWPRP | 0.342
21 | RRIRHRPPRLPRPRPRPPDSPRP | 0.139
22 | RRIRRRPPRLPRPRPRPWKAPRP | 0.0256
23 | RRIRSRPPRLPRPRPRPYDGPRP | -0.203
24 | RRIRERPPRLPRPRPRPVVRPRP | 0.0531
25 | RRIRWRPPRLPRPRPRPMPAPRP | 0.995

Row | Sequence | shrunken log2 fold change
26 | RRIRRRPPRLPRPRPRPWINPRP | -0.37
27 | RRIRCRPPRLPRPRPRPHVIPRP | -0.245
28 | RRIRGRPPRLPRPRPRPYHAPRP | 0.142
29 | RRIRGRPPRLPRPRPRPGVQPRP | 0.739
30 | RRIRRRPPRLPRPRPRPGSEPRP | 0.00207
31 | RRIRDRPPRLPRPRPRPSHVPRP | -0.401
32 | RRIRARPPRLPRPRPRPTQGPRP | 0.905
33 | RRIRDRPPRLPRPRPRPLQDPRP | 0.115
34 | RRIRYRPPRLPRPRPRPRWYPRP | -1.15
35 | RRIRDRPPRLPRPRPRPAGWPRP | 1.05
36 | RRIRCRPPRLPRPRPRPSDWPRP | -0.0723
37 | RRIRIRPPRLPRPRPRPPWGPRP | 0.0517
38 | RRIRSRPPRLPRPRPRPMSVPRP | -0.0847
39 | RRIRHRPPRLPRPRPRPANPPRP | 0.0212
40 | RRIRYRPPRLPRPRPRPQVEPRP | -0.218
41 | RRIRLRPPRLPRPRPRPNHLPRP | 0.0169
42 | RRIRQRPPRLPRPRPRPDCNPRP | 0.167
43 | RRIRNRPPRLPRPRPRPFTPPRP | -0.197
44 | RRIRWRPPRLPRPRPRPMQQPRP | 0.056
45 | RRIRGRPPRLPRPRPRPCTGPRP | 0.11
46 | RRIRQRPPRLPRPRPRPCFKPRP | -0.407
47 | RRIRPRPPRLPRPRPRPPQVPRP | 0.368
48 | RRIRQRPPRLPRPRPRPKNNPRP | -0.616
49 | RRIRVRPPRLPRPRPRPTILPRP | -0.308
50 | RRIRRRPPRLPRPRPRPIDSPRP | -0.0316

Row | Sequence | shrunken log2 fold change
51 | RRIRRRPPRLPRPRPRPYMMPRP | -0.699
52 | RRIRYRPPRLPRPRPRPSYNPRP | -0.676
53 | RRIRKRPPRLPRPRPRPARGPRP | 0.766
54 | RRIRCRPPRLPRPRPRPMRFPRP | 0.249
55 | RRIRARPPRLPRPRPRPPSFPRP | 0.415
56 | RRIRKRPPRLPRPRPRPPQLPRP | 0.488
57 | RRIRNRPPRLPRPRPRPVANPRP | -0.0653
58 | RRIRVRPPRLPRPRPRPDSFPRP | -0.0784
59 | RRIRQRPPRLPRPRPRPTEKPRP | -0.047
60 | RRIRARPPRLPRPRPRPTEFPRP | 0.368
61 | RRIRGRPPRLPRPRPRPCGSPRP | 0.107
62 | RRIRSRPPRLPRPRPRPHVEPRP | 0.121
63 | RRIRDRPPRLPRPRPRPASEPRP | 0.453
64 | RRIRSRPPRLPRPRPRPMIGPRP | 0.0355
65 | RRIRSRPPRLPRPRPRPLFGPRP | 0.157
66 | RRIRRRPPRLPRPRPRPLSSPRP | 0.234
67 | RRIRCRPPRLPRPRPRPERIPRP | 0.164
68 | RRIRDRPPRLPRPRPRPERNPRP | 0.278
69 | RRIRRRPPRLPRPRPRPEWNPRP | 0.471
70 | RRIRSRPPRLPRPRPRPPTIPRP | 0.0521
71 | RRIRTRPPRLPRPRPRPWRVPRP | -0.00468
72 | RRIRDRPPRLPRPRPRPHCDPRP | -0.0666
73 | RRIRDRPPRLPRPRPRPVCTPRP | 0.0514
74 | RRIRRRPPRLPRPRPRPGVMPRP | 0.245
75 | RRIRDRPPRLPRPRPRPTHAPRP | 0.148

Row | Sequence | shrunken log2 fold change
76 | RRIRGRPPRLPRPRPRPCAMPRP | -0.102
77 | RRIRNRPPRLPRPRPRPCKEPRP | -0.451
78 | RRIRIRPPRLPRPRPRPMACPRP | -0.321
79 | RRIRKRPPRLPRPRPRPKMPPRP | 0.0535
80 | RRIRNRPPRLPRPRPRPVTPPRP | 0.0444
81 | RRIRLRPPRLPRPRPRPCYLPRP | -0.856
82 | RRIRERPPRLPRPRPRPNVFPRP | -0.189
83 | RRIRNRPPRLPRPRPRPQVKPRP | 0.0117
84 | RRIRSRPPRLPRPRPRPYQLPRP | -0.149
85 | RRIRMRPPRLPRPRPRPDEHPRP | 2.21
86 | RRIRARPPRLPRPRPRPKGTPRP | 0.233
87 | RRIRARPPRLPRPRPRPGMNPRP | -0.0966
88 | RRIRQRPPRLPRPRPRPRWGPRP | 0.447
89 | RRIRLRPPRLPRPRPRPMGDPRP | 0.0227
90 | RRIRCRPPRLPRPRPRPQGIPRP | 0.158
91 | RRIRMRPPRLPRPRPRPEKSPRP | 2
92 | RRIRFRPPRLPRPRPRPMNSPRP | -0.325
93 | RRIRARPPRLPRPRPRPMDAPRP | 0.293
94 | RRIRFRPPRLPRPRPRPIEFPRP | 0.0129
95 | RRIRKRPPRLPRPRPRPRFAPRP | 0.614
96 | RRIRLRPPRLPRPRPRPFPHPRP | -0.0537
97 | RRIRPRPPRLPRPRPRPAYIPRP | -0.518
98 | RRIRIRPPRLPRPRPRPWSRPRP | -0.187
99 | RRIRYRPPRLPRPRPRPATGPRP | 0.337
100 | RRIRGRPPRLPRPRPRPFFHPRP | -0.0568

Row | Sequence | shrunken log2 fold change
101 | RRIRTRPPRLPRPRPRPRQPPRP | 0.135
102 | RRIRYRPPRLPRPRPRPRDAPRP | -0.103
103 | RRIRKRPPRLPRPRPRPPARPRP | 1.16
104 | RRIRGRPPRLPRPRPRPTSTPRP | 1.05
105 | RRIRPRPPRLPRPRPRPCPSPRP | 0.0668
106 | RRIRHRPPRLPRPRPRPVMPPRP | 0.189
107 | RRIRNRPPRLPRPRPRPAAIPRP | 1.95
108 | RRIRERPPRLPRPRPRPFRQPRP | 0.198
109 | RRIRWRPPRLPRPRPRPNMKPRP | -0.0784
110 | RRIRPRPPRLPRPRPRPCETPRP | 0.0508
111 | RRIRSRPPRLPRPRPRPRSRPRP | 0.0341
112 | RRIRMRPPRLPRPRPRPNKEPRP | 0.127
113 | RRIRCRPPRLPRPRPRPPETPRP | 0.105
114 | RRIRFRPPRLPRPRPRPYNFPRP | -0.458
115 | RRIRLRPPRLPRPRPRPTLGPRP | 0.222
116 | RRIRNRPPRLPRPRPRPEKFPRP | -0.165
117 | RRIRNRPPRLPRPRPRPMVKPRP | -0.00408
118 | RRIRNRPPRLPRPRPRPEDKPRP | 0.114
119 | RRIRHRPPRLPRPRPRPNCSPRP | 0.0841
120 | RRIRVRPPRLPRPRPRPILDPRP | -0.224
121 | RRIRPRPPRLPRPRPRPWMKPRP | -0.0651
122 | RRIRIRPPRLPRPRPRPFLVPRP | -0.759
123 | RRIRARPPRLPRPRPRPHVVPRP | -0.288
124 | RRIRGRPPRLPRPRPRPQHLPRP | -0.054
125 | RRIRSRPPRLPRPRPRPHIRPRP | -0.632

Row | Sequence | shrunken log2 fold change
126 | RRIRNRPPRLPRPRPRPYECPRP | -0.177
127 | RRIRQRPPRLPRPRPRPGGCPRP | 0.546
128 | RRIRKRPPRLPRPRPRPYDAPRP | -0.252
129 | RRIRSRPPRLPRPRPRPIIRPRP | -1.09
130 | RRIRPRPPRLPRPRPRPFKNPRP | -0.615
131 | RRIRYRPPRLPRPRPRPVTTPRP | -0.209
132 | RRIRIRPPRLPRPRPRPTVSPRP | -0.0336
133 | RRIRARPPRLPRPRPRPYPNPRP | -0.257
134 | RRIRERPPRLPRPRPRPKLGPRP | 0.12
135 | RRIRMRPPRLPRPRPRPLAGPRP | 0.468
136 | RRIRARPPRLPRPRPRPSFIPRP | -0.177
137 | RRIRIRPPRLPRPRPRPLHRPRP | -0.307
138 | RRIRWRPPRLPRPRPRPHDAPRP | -0.145
139 | RRIRSRPPRLPRPRPRPHPHPRP | -0.168
140 | RRIRERPPRLPRPRPRPWPVPRP | -0.643
141 | RRIRDRPPRLPRPRPRPKSRPRP | 0.0765
142 | RRIRARPPRLPRPRPRPDTMPRP | 0.0783
143 | RRIRKRPPRLPRPRPRPNMSPRP | -0.0139
144 | RRIRSRPPRLPRPRPRPGWIPRP | 0.0994
145 | RRIRNRPPRLPRPRPRPAPNPRP | -0.0796
146 | RRIRRRPPRLPRPRPRPDWNPRP | -0.223
147 | RRIRFRPPRLPRPRPRPTLGPRP | 0.175
148 | RRIRYRPPRLPRPRPRPRHWPRP | 0.272
149 | RRIRGRPPRLPRPRPRPNITPRP | 0.315
150 | RRIRLRPPRLPRPRPRPNFCPRP | 0.101
